Data published in the supplement of paper PMC7125110.
± gives the standard error. For part of these data: Fewer inactive variants are shown than the library holds.

B1: glmS ribozyme (parent)
chain: AUAAAAGCGCCAGAACUACAGAAAUGUAGUUGACGAGGAGGAGGUUUAUCGAAUUUUCGGCGGAUGCCUCCAAA

Assays:
Details in all cases: with glucosamine-6-phosphate
[1] = variants of: B1; assay: kcat; higher = faster cleavage; RNA array
Summary of the method: (§1)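 Weighted Michaelis–Menten fits across concentrations supplied kcat and KM, based on kobs from one- or two-exponential decay fits to normalised per-tile medians. The data came from barcoded ribozyme variants transcribed in situ by E. coli RNA polymerase on sequenced MiSeq chips and tracked at 37 °C by a hybridised Cy3 probe. Glucosamine-6-phosphate (40 μM to 10 mM) in HEPES/KCl/Mg(OAc)2 buffer was flowed in.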

[2] = variants of: B1; assay: self-cleavage kobs at 160 uM GlcN6P; higher = faster cleavage; RNA array
Summary of the method: as §1

[3] = variants of: B1; assay: self-cleavage kobs at 640 uM GlcN6P; higher = faster cleavage; RNA array
Summary of the method: as §1

[4] = variants of: B1; assay: self-cleavage kobs at 2500 uM GlcN6P; higher = faster cleavage; RNA array
Summary of the method: as §1

[5] = variants of: B1; assay: self-cleavage kobs at 10000 uM GlcN6P; higher = faster cleavage; RNA array
Summary of the method: as §1

[6] = variants of: B1; assay: KM; higher = weaker cofactor use; RNA array
Summary of the method: as §1

[7] = variants of: B1; assay: self-cleavage kobs at 40 uM GlcN6P; higher = faster cleavage; RNA array
Summary of the method: as §1

Variant | kcat [1] | self-cleavage kobs at 160 uM GlcN6P [2] | self-cleavage kobs at 640 uM GlcN6P [3] | self-cleavage kobs at 2500 uM GlcN6P [4] | self-cleavage kobs at 10000 uM GlcN6P [5] | KM [6] | self-cleavage kobs at 40 uM GlcN6P [7]
A52G U57A | 0.000484 ± 0.00016 s⁻¹ | 4.1e-05 ± 1.6e-05 s⁻¹ | 6.62e-05 ± 9.6e-06 s⁻¹ | 0.00023 ± 2.4e-05 s⁻¹ | 0.000289 ± 8e-05 s⁻¹ |  | 
A52G U57C | 0.000378 ± 1.3e-05 s⁻¹ | 2.83e-05 ± 1.3e-05 s⁻¹ | 9.94e-05 ± 1e-05 s⁻¹ | 0.000227 ± 3.1e-05 s⁻¹ | 0.000314 ± 4.4e-05 s⁻¹ | 1790 ± 110 µM | 
A52G G62A | 2.22e-05 ± 9.7e-06 s⁻¹ | < 1e-05 s⁻¹ |  |  | < 1e-05 s⁻¹ |  | 
A52G A64G | 0.00183 ± 0.00049 s⁻¹ | 6.03e-05 ± 9.6e-06 s⁻¹ | 0.00036 ± 3.9e-05 s⁻¹ | 0.000616 ± 0.0001 s⁻¹ | 0.00136 ± 0.00013 s⁻¹ | 3690 ± 1500 µM | 2.83e-05 ± 7.3e-06 s⁻¹
A53C C68U | 9.65e-05 ± 7.1e-06 s⁻¹ |  | 3.67e-05 ± 7.7e-06 s⁻¹ | 8.77e-05 ± 1e-05 s⁻¹ | 8.67e-05 ± 5.3e-06 s⁻¹ | 858 ± 310 µM | 
A52U C70U | 0.00063 ± 0.0001 s⁻¹ |  | 0.000122 ± 2e-05 s⁻¹ | 0.000228 ± 3.4e-05 s⁻¹ | 0.000483 ± 4.7e-05 s⁻¹ | 3490 ± 1100 µM | 
A52U C70A | 5.6e-05 ± 1.2e-05 s⁻¹ | 3.06e-05 ± 1.5e-05 s⁻¹ | 3.63e-05 ± 1.3e-05 s⁻¹ | 8.32e-05 ± 1.6e-05 s⁻¹ | 4.7e-05 ± 1e-05 s⁻¹ |  | 
A53C U56G | 0.00299 ± 0.00066 s⁻¹ | 0.000166 ± 4.2e-05 s⁻¹ | 0.000851 ± 0.00012 s⁻¹ | 0.00165 ± 0.00035 s⁻¹ | 0.00254 ± 0.00039 s⁻¹ | 1830 ± 570 µM | 7.77e-05 ± 1.1e-05 s⁻¹
G51U U69A | 5.12e-05 ± 2.4e-05 s⁻¹ |  | 7.72e-05 ± 1.7e-05 s⁻¹ |  |  |  | 
G51U U69G | 4.26e-05 ± 1.5e-05 s⁻¹ | 5.17e-05 ± 1.2e-05 s⁻¹ | 5.57e-05 ± 1.3e-05 s⁻¹ | 7e-05 ± 1e-05 s⁻¹ | 1.72e-05 ± 8.1e-06 s⁻¹ |  | 
A53G C67G | 0.007 ± 0.0028 s⁻¹ | 0.000304 ± 4.6e-05 s⁻¹ | 0.00225 ± 0.00035 s⁻¹ | 0.00466 ± 0.00096 s⁻¹ | 0.00539 ± 0.00069 s⁻¹ |  | 0.000155 ± 1.6e-05 s⁻¹
A53G G60A | 2.61e-05 ± 9.4e-06 s⁻¹ |  |  | 3.68e-05 ± 1e-05 s⁻¹ | 1.88e-05 ± 8.7e-06 s⁻¹ |  | 
A53C U57G | 0.000348 ± 0.00012 s⁻¹ |  | 9.98e-05 ± 1.6e-05 s⁻¹ | 0.000143 ± 1.9e-05 s⁻¹ | 0.000339 ± 4.6e-05 s⁻¹ |  | 
A53C U54A | 0.00804 ± 0.0035 s⁻¹ | 0.000353 ± 9.2e-05 s⁻¹ | 0.00128 ± 0.00018 s⁻¹ | 0.00277 ± 0.00065 s⁻¹ | 0.00747 ± 0.00098 s⁻¹ |  | 0.000184 ± 2.3e-05 s⁻¹
A52C C71U | 1.4e-05 ± 5.1e-07 s⁻¹ |  |  |  |  | 1650 ± 280 µM | < 1e-05 s⁻¹
